Here are results for four molecules from patent US20230302083A1, “HIGHLY-NETWORKED C[…] COMPOSITION” (priority 2020, published 2023).

Where only a bound is given, the exact number is not on record here.

The target in this assay is HLA-A*0301 (human).
Molecule RVIHFGAGSDK (modifications not checked) gave an HLA-A*0301 stabilization relative to HIV RK9 above 50%. KGIYQTSNFR (modifications not checked) had an HLA-A*0301 stabilization relative to HIV RK9 above 50%. As for GNYQCGHYK (modifications not checked), the HLA-A*0301 stabilization relative to HIV RK9 was above 50%.

Take VMCGGSLYVK (modifications not checked): the HLA-A*0301 stabilization relative to HIV RK9 was above 50%.
